Values quoted from earlier work in EP4471063A1, “ANTIBODY AGAINST HER3, CONJUGATE AND USE THEREOF” (priority 2022, dated 2023).

Assays:
[1] = multicenter clinical studies
[2] = once every three weeks, five administrations, 0, 3, 10, 30 mg/kg

Patritumab Deruxtecan
thrombocytopenia as treatment emergent adverse event (TEAE) [1]: 30%
body weight (at all doses): no significant abnormality
toxic target organs (cynomolgus monkey, in vivo): thymus, bone marrow, and skin
dose at which a decrease in reticulocytes, lymphocytes, and platelets was observed [2]: ≥ 3 mg/kg
dose at which transferases increased [2]: ≥ 10 mg/kg
